± gives the half width of the 95% confidence interval.
What was measured:
[1] = folding stability dG unfold from chymotrypsin proteolysis; higher = more stable
Experimental: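 Folding stability of de novo designed mini-proteins (<80 aa, no Cys; designed by TrROS, TrMRF, ProteinMPNN and the joint model) was measured by cDNA display proteolysis with trypsin and chymotrypsin. Each protease was used at 11 concentrations in a threefold dilution series plus a no-protease condition. K50 was inferred by Bayesian fitting of sequencing counts, and dG unfold was derived against a sequence-predicted unfolded-state K50 (Tsuboyama et al. method). Sequences shown include variable-length N-terminal GS-type padding (SAGGSAGG...) inside a display construct carrying a PA tag. Rows were kept only if the AF2 dimer inter-PAE was >15, to exclude likely homo-oligomers.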

[2] = folding stability dG unfold (combined trypsin and chymotrypsin); higher = more stable
How it was run: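 Unfolding free energy was derived, per protease or combined, against a sequence-predicted unfolded-state K50 and a shared folded-state K50, starting from K50 inferred by Bayesian fitting of sequencing counts. Digestion with trypsin and chymotrypsin was carried out on designed mini-proteins under 80 residues without cysteine in a PA-tagged cDNA display construct. Only designs with AlphaFold2 dimer inter-PAE above 15 were kept.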

Row | Sequence | folding stability dG unfold [1] [kcal/mol] | folding stability dG unfold [2] [kcal/mol]
1 | SAGGSAGGSAEKDVKLLDVEELEEERVALVEFPVDPKVVRIKFDKDMTIDEIKKKAKELAGSAGGSAGGSAG [r3_142_TrMRF] | 0.523 ± 0.03 | 0.0889 ± 0.15
2 | SAGGSAGGSAEVTFKKVSFSPPENTVYVSEVKAKLYVGEDDSLKFKVEPVKVEKVSPADLLAKSAGGSAGGS [r12_374_TrMRF] | 0.0476 ± 0.16 | -0.439 ± 0.16
3 | SAGGSAGGSAGGAAEVLEALRAARGQPVVVLVKDPAGNEREVTVPGDTARFPGWTVVELLSAGGSAGGSAGG [r7_998_JUSTAS] | 0.739 ± 0.11 | 0.341 ± 0.17
4 | SAGGSAGGSAGGAIEEARDLAKEGGPWEATIPVYDPNGGPKTIKIRVEVERDPENGKFKSAGGSAGGSAGGS [r10_346_TrROS] | 0.257 ± 0.12 | -0.0783 ± 0.19
5 | SAGGSAGGSAGGAMPNDVKVTTTTFTGTETLTLTDASGTPTSSTKTVTTTRTSVFPDTTSAGGSAGGSAGGS [r10_1212_JUSTAS] | 0.733 ± 0.1 | 0.311 ± 0.13
6 | SAGGSAGGSAGGAPVTVIPVKKDNPEVREKTAKELKEKAKEIDPSNIKITIEKGVVTLESAGGSAGGSAGGS [r10_182_JUSTAS] | 0.263 ± 0.049 | -0.0644 ± 0.13
7 | SAGGSAGGSAGGAVGPDVGLPDAPVRFRNPSDDKVFTAYVPAGANFADLAKKYGVEIEPSAGGSAGGSAGGS [r10_202_TrMRF] | 0.673 ± 0.14 | 0.167 ± 0.15
8 | SAGGSAGGSAGGDVLLFVDESTGLADARALAEALGLKDVVIVPVPPAKPVVLNADGSPTSAGGSAGGSAGGS [r10_1083_TrMRF] | 0.63 ± 0.052 | -0.0616 ± 0.1
9 | SAGGSAGGSAGGEPDPKFHVEYDEEEGRYKVKIYNPNNNKKEEIEVPVPPGQPKEEAIKSAGGSAGGSAGGS [r10_676_TrROS] | 0.0247 ± 0.11 | -0.269 ± 0.27
10 | SAGGSAGGSAGGGERRRVLHINPEDGYIQRMEFDPDDGEPTGSETVPFKSPEDALDKLIDSAGGSAGGSAGG [r7_105_TrROS] | 0.342 ± 0.14 | -0.152 ± 0.2
11 | SAGGSAGGSAGGGEYAKIKIKNPINPKYKEIEIEIPSNKKNVIINATGSGNATITEIKLESAGGSAGGSAGG [r7_687_TrMRF] | 0.177 ± 0.27 | -0.584 ± 0.49
12 | SAGGSAGGSAGGGMILNITLIRPDGKPIVIEGPLDKPLYNPKKAGIENIPPEKLVKVEPRSAGGSAGGSAGG [r7_745_TrMRF] | -0.891 ± 0.8 | < -1
13 | SAGGSAGGSAGGGMRLVEVPPGDPAAVEARLAELGPDARLLEVRRLPEEGRWVVLVSEESAGGSAGGSAGGS [r10_23_JUSTAS] | 0.643 ± 0.2 | -0.258 ± 0.33
14 | SAGGSAGGSAGGGPMLRYTLTFTLPDSTVTKEFSSEEEVEEAKEQLPEEYPVDPNVTVSPSAGGSAGGSAGG [r7_18_JUSTAS] | -0.113 ± 0.43 | -0.22 ± 0.32
15 | SAGGSAGGSAGGGPNIRTVTETTVEPTPDSVVTTRPVYYVDPSGTVLGSETTTTVDPNTTSAGGSAGGSAGG [r7_812_JUSTAS] | 0.179 ± 0.034 | -0.26 ± 0.13
16 | SAGGSAGGSAGGGPPLPLRVEREEKVEKTPDDRVLIKRKVTVELPDRPLSEEESIEILLESAGGSAGGSAGG [r7_293_JUSTAS] | 0.146 ± 0.2 | -0.415 ± 0.25
17 | SAGGSAGGSAGGIYIPLEDLEKNGLGFEELVEKLGVDVEIEVLETEPGKPVAKIRPKLGSAGGSAGGSAGGS [r10_855_TrMRF] | 0.968 ± 0.027 | 0.435 ± 0.093
18 | SAGGSAGGSAGGKTLSKEEALKKAKELAEKGEKVKIEVKNKKTKKTETIEITKEELEKLSAGGSAGGSAGGS [r10_779_TrROS_Hall] | 0.47 ± 0.13 | 0.151 ± 0.44
19 | SAGGSAGGSAGGLIPPNQKIKIKEIEPPNNEMNIDLEYPDNGKKVEFPFDSPEQALDALSAGGSAGGSAGGS [r10_1038_TrROS] | 0.658 ± 0.049 | 0.227 ± 0.14
20 | SAGGSAGGSAGGLPINARPPNIAEVIRALRESGRYRVVEIRPFGDGAVIRVEKDGVPLESAGGSAGGSAGGS [r10_695_TrMRF] | 0.769 ± 0.19 | 0.0741 ± 0.34
21 | SAGGSAGGSAGGMKIRVTHPTNKTEEIIPVSELKKIPGPYTIEPLGPDPELAEKIKKLLSAGGSAGGSAGGS [r10_419_JUSTAS] | 0.553 ± 0.22 | 0.142 ± 0.25
22 | SAGGSAGGSAGGMKITLKVKKPDGTTTTITVDIDESKIEEIKEEIAPKGYEVEEAEIELESAGGSAGGSAGG [r7_159_JUSTAS] | 0.638 ± 0.12 | 0.00742 ± 0.36
23 | SAGGSAGGSAGGMPAEEVQNIIEEQGFDGPNQTVTIDVPDGRRVKIEMPPNGMKLEVEDSAGGSAGGSAGGS [r10_604_TrROS] | 0.0665 ± 0.081 | -0.538 ± 0.31

Source: the supplement of paper PMC12764529
